Assay results taken from US12448422B2, “Transcription factor NCgl0581 mutant and use thereof in L-serine detection” (JITRI FUTURE FOOD TECHNOLOGY INSTITUTE CO., LTD., priority 2023, dated 2025).

B1: NCgl0581^E136P: transcription factor NCgl0581 mutant, 136th glutamic acid of SEQ ID NO.1 mutated into proline (SEQ ID NO.3) (protein)
chain: VLNLNRLHILQEFHRLGTITAVAESMNYSRSAISQQMALLEKEIGVKLFEKSGRNLYFTEQGEVLASETHAIMAAVDHARAAVLDSLSEVSGTLKVTSFQSLLFTLAPKAIARLTEKYPHLQVEISQLEVTAALEPLRARRVDVALGEEYPVEVPLVEASIHREVLFEDPMLLVTPASGPYSGLTLPELRDIPIAIDPPDLPAGEWVHRLCRRAGFEPRVTFETSDPMLQAHLVRSGLAVTFSPTLLTPMLESVHIQPLPGNPTRTLYTAVREGRQGHPAIKAFRRALAHVAKESYLEARLVE
B2: wild-type NCgl0581: wild-type LysR-family transcription regulator of Corynebacterium glutamicum (SEQ ID NO.1); L-serine biosensor pDSer is based on it (protein)
chain: VLNLNRLHILQEFHRLGTITAVAESMNYSRSAISQQMALLEKEIGVKLFEKSGRNLYFTEQGEVLASETHAIMAAVDHARAAVLDSLSEVSGTLKVTSFQSLLFTLAPKAIARLTEKYPHLQVEISQLEVTAALEELRARRVDVALGEEYPVEVPLVEASIHREVLFEDPMLLVTPASGPYSGLTLPELRDIPIAIDPPDLPAGEWVHRLCRRAGFEPRVTFETSDPMLQAHLVRSGLAVTFSPTLLTPMLESVHIQPLPGNPTRTLYTAVREGRQGHPAIKAFRRALAHVAKESYLEARLVE

Tested on: L-serine
Assay: L-serine biosensor dose response by exogenous addition of L-serine (eyfp fluorescence intensity/OD600)
Type: cell-based, E. coli JM109
Conditions: for detection limit of the biosensor (L-serine concentration at which the dose response curve shows an obvious upward trend): E. coli JM109, L-serine 0, 25, 50, 75 or 100 mM, 2 h at 37° C., PSerE-eyfp reporter
Method: Determination of fluorescence intensity and biomass of bacteria: E. coli in the medium was centrifuged at 4° C. and 4000 g for 5 min to collect the bacteria, washed with a precooled PBS buffer for 2-3 times, resuspended and diluted in a PBS buffer (OD600=0.2-0.8). 200 μL of the diluted bacterial liquid was pipetted and added into a 96-well plate, and the fluorescence intensity and bacterial concentration were determined with a multifunctional microplate reader. During the determination of the fluorescence intensity, the parameters of the microplate reader were set to a yellow fluorescent protein excitation wavelength of 488 nm and an emission wavelength of 590/9 nm; and during the determination of the bacteria concentration, the parameters of the microplate reader were set to λ=600.
One part of the biosensor was used for the expression of the transcription regulator NCgl0581, and the other part was connected with the promoter PSerE regulated by NCgl0581, and then connected with eyfp, which was used to characterize the binding of the biosensor to L-serine so as to regulate the transcription level of eyfp. The nucleotide sequence of the promoter PSerE is shown in SEQ ID NO.5, and the nucleotide sequence of the reporter gene eyfp is shown in SEQ ID No.6.
On the basis of site-directed mutation, E. coli JM109 single colonies containing wild-type NCgl0581 and mutant E136P were selected and inoculated into a 10 mL LB (100 μg/mL Kan) liquid medium, and cultured overnight at 37° C. and 220 rpm. A 950 μL of fresh LB medium was added to each well in a sterilized 24-well plate, and then L-serine with different concentrations was added, with the final concentration controlled to be 0, 25, 50, 75 or 100 mM respectively. Finally, 50 μL of the overnight culture bacteria liquid was added to each well, and the well plate was cultured in a shaker for 2 h at 37° C. and 220 rpm.
E. coli JM109 in the medium was centrifuged for 5 min to collect the bacteria, washed with a PBS buffer for 2-3 times, resuspended and diluted in a PBS buffer (OD600=0.2-0.8). 200 μL of the diluted bacterial liquid was pipetted and added into a 96-well plate, and the bacterial concentration OD600 and fluorescence intensity were determined with a multifunctional microplate reader, with the calculated fluorescence intensity/OD600 as the fluorescence intensity value per unit of bacterial cell.
With the fluorescence intensity/OD600 as the ordinate and the L-serine concentration as the abscissa, the dose response curve of the biosensor to L-serine was drawn by OriginPro 8.5. […] According to the response curve, the detection range of wild-type NCgl0581 and mutant E136P could be obtained respectively.

Row | Molecule | detection limit of the biosensor (L-serine concentration at which the dose response curve shows an obvious upward trend) [mM] | change of detection limit of the biosensor versus wild type (biosensor in E. coli, L-serine concentration gradients) | response concentration to L-serine (biosensor in E. coli, exogenous addition of L-serine) [mM]
1 | B1 | 25 | reduced by half | 25
2 | B2 | 50 |  | 
